Measured values: publication PMC3515998

Target: Gαi/o proteins (human (endogenous in HEK293T)) (UniProt P63096)
Sequence of UniProt P63096 (P63096 whole entry): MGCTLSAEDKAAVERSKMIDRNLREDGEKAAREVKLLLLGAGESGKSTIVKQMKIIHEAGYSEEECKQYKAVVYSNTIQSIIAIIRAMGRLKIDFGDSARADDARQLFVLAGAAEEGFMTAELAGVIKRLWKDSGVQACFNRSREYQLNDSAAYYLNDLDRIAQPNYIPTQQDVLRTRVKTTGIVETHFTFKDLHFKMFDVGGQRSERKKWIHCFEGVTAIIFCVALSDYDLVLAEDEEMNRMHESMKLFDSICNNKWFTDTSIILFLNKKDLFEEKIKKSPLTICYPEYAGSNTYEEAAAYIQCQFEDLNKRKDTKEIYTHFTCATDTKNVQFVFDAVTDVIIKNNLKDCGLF

Substance: F318K mutant of Flag-tagged rat MCHR1 (from UniProt P97639 1-353) (receptor)
- EC50 of MCH for stimulation of [35S]GTPγS binding to membranes of transfected HEK293T cells (0.001-1000 nM MCH, 30 min, 30°C): 0.47 nM
- basal [35S]GTPγS binding to membranes (no MCH), percent of Flag-MCHR1: 97.6%
- maximal [35S]GTPγS binding to membranes with 1 μM MCH, percent of basal: 191 % of basal

Substance: Flag-MCHR1 (rat melanin-concentrating hormone receptor 1 with a Flag epitope tag before the first methionine) (from UniProt P97639 1-353)
- EC50 of MCH for stimulation of [35S]GTPγS binding to membranes of transfected HEK293T cells (0.001-1000 nM MCH, 30 min, 30°C): 0.23 nM
- maximal [35S]GTPγS binding to membranes with 1 μM MCH, percent of basal: 208 % of basal
